Like-named read-outs stand apart in the source and are kept apart here.
What was measured:
[1] = molecular target: Y2-like receptor population expressed by human SK-N-Be(2) neuroblastoma cells; test: 125I-PYY displacement, SK-N-Be(2) membranes
[2] = molecular target: Y2-like receptor population expressed by human SK-N-Be(2) neuroblastoma cells; test: ratio of Ki values, 125I-PYY displacement
[3] = molecular target: human Y4 receptor (human) (UniProt P0DQD5); test: 125I-PYY displacement, COS-7 membranes (as in Table 3)
human Y4 receptor (human), sequence (P0DQD5 whole entry): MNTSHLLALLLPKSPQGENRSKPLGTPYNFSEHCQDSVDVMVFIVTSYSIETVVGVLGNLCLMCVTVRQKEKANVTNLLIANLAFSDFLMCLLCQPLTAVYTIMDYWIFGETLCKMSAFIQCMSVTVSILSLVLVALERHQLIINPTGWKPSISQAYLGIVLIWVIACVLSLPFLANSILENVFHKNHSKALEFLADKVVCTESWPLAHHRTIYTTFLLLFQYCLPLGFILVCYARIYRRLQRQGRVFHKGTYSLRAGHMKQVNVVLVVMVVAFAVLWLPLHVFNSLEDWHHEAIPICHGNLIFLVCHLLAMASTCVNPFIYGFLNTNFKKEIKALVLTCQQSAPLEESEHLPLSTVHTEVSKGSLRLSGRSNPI

[4] = molecular target: human Y1 receptor (human) (UniProt P25929); test: 125I-PYY displacement, COS-7 membranes
human Y1 receptor (human), sequence (P25929 whole entry): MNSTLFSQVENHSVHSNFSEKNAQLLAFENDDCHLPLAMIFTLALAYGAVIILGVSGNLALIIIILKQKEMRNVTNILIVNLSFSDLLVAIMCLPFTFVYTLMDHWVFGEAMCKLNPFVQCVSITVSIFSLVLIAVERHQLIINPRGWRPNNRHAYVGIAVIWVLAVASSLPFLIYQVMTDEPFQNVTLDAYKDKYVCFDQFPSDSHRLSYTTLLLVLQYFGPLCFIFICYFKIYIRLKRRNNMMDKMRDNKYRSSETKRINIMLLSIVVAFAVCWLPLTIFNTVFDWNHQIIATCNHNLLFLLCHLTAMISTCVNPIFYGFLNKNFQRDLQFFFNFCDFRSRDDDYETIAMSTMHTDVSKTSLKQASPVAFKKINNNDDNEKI

[5] = molecular target: human Y1 receptor (human) (UniProt P25929); test: 125I-PYY displacement, COS-7 membranes; remark: listed apart in the source
[6] = molecular target: human Y4 receptor (human) (UniProt P0DQD5); test: 125I-PYY displacement, COS-7 membranes
[7] = molecular target: human Y4 receptor (human) (UniProt P0DQD5); test: 125I-PYY displacement, COS-7 membranes; remark: listed apart in the source
[8] = molecular target: human Y4 receptor (human) (UniProt P0DQD5); test: 125I-PYY displacement, COS-7 membranes; remark: listed apart in the source
[9] = molecular target: human Y2 receptor (human) (UniProt P49146); test: 125I-PYY displacement, COS-7 membranes
human Y2 receptor (human), sequence (P49146 whole entry): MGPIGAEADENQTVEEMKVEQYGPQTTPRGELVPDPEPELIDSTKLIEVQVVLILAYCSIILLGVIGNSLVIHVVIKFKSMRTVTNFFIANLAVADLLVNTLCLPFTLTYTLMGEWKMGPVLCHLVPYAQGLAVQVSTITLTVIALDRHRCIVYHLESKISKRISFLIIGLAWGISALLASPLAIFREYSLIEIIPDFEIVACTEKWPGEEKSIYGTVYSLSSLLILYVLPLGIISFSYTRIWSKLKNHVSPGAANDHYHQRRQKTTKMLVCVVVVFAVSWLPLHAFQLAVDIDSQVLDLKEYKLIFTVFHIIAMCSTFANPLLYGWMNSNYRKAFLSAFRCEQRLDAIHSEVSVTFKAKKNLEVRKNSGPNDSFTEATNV

rat Y4 receptor (rat) = rat Y4 receptor (rat) (UniProt Q63447); test: 125I-PYY displacement, COS-7 membranes
rat Y4 receptor (rat), sequence (Q63447 whole entry R262P): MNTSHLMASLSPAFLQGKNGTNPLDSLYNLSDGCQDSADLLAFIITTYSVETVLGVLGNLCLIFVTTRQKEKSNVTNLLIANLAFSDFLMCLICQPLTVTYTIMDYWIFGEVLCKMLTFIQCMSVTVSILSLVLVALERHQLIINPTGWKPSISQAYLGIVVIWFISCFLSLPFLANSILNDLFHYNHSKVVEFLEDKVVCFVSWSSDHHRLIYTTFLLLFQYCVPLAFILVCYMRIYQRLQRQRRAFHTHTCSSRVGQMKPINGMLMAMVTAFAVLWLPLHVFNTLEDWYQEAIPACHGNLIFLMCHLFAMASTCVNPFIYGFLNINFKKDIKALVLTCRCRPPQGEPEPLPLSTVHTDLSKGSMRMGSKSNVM

[10] = molecular target: human Y1 receptor (human) (UniProt P25929); test: ratio of Ki values, 125I-PYY displacement
[11] = molecular target: human Y4 receptor (human) (UniProt P0DQD5); test: ratio of Ki values, 125I-PYY displacement
[12] = molecular target: human Y4 receptor (human) (UniProt P0DQD5); test: cell-based or functional assay

PP, salmon (peptide), sequence (P69092 whole entry): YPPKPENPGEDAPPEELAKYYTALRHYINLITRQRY

Row | Substance | Ki [1] | Ki [4] | Ki [5] | Ki [6] | Ki [8] | Ki [9] | also measured
1 | human peptide YY (from UniProt P10082 29-64) | 0.11 nM | – | – | – | – | – | fold higher affinity than at hp25a [2]: 5 to 10 fold
2 | porcine NPY18-36 (from UniProt P01304 27-45) (peptide) | 2.1 nM | 70 nM | 28 nM | 63 nM | – | – | Ki [3]: > 290 nM
3 | PP31-36 free acid, human (from UniProt P01298 60-65) (peptide) | – | – | – | – | – | – | Ki [7]: > 10000 nM
4 | porcine NPY20-36 (from UniProt P01304 29-45) (peptide) | 3.1 nM | 63 nM | 62 nM | 100 nM | 120 nM | – | –
5 | porcine NPY16-36 (from UniProt P01304 25-45) (peptide) | 5 nM | 41 nM | 45 nM | – | 54 nM | 3.6 nM | –
6 | PP, frog (peptide) | – | 98 nM | – | – | 61 nM | – | Ki (rat Y4 receptor (rat)): 0.19 nM; Ki [7]: 62 nM
7 | PP, avian (peptide) | – | 400 nM | – | – | 7 nM | – | –
8 | human NPY free acid (from UniProt P01303 29-64) (peptide) | 280 nM | – | – | – | – | – | –
9 | porcine NPY22-36 (from UniProt P01304 31-45) (peptide) | 3.2 nM | – | 170 nM | 140 nM | – | 18 nM | fold loss in affinity against full length porcine NPY [2]: 11 fold; fold loss in affinity against full length porcine NPY [10]: 3500 fold; fold loss in affinity against full length porcine NPY [11]: 120 fold
10 | C2-NPY, porcine (peptide) | – | 73 nM | – | – | 120 nM | 3.5 nM | Ki (rat Y4 receptor (rat)): 22 nM
11 | porcine NPY26-36 (from UniProt P01304 35-45) (peptide) | 70 nM | – | > 300 nM | – | – | 380 nM | –
12 | porcine NPY2-36 (from UniProt P01304 11-45) (peptide) | 0.41 nM | 2.4 nM | – | 4.4 nM | 5.6 nM | – | –
13 | porcine NPY13-36 (from UniProt P01304 22-45) (peptide) | – | 70 nM | 51 nM | 39 nM | 38 nM | 2.5 nM | Ki (rat Y4 receptor (rat)): 135 nM
14 | PP, salmon (peptide) | – | 0.2 nM | – | – | 3.2 nM | – | Ki [3]: 3.2 nM; Ki (rat Y4 receptor (rat)): 0.36 nM; EC50, inhibition of forskolin-stimulated cAMP accumulation, LM(tk-) cells [12]: 110 nM

Source: patent publication US6913892
